Measurements as given in the nanobody polyreactivity screen of Harvey et al. (2022).

experiment: yeast display, Sf9 membrane polyspecificity reagent, FACS + sequencing; frameworks hold sequencing errors
In short: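 In a synthetic yeast display library (Saccharomyces cerevisiae BJ5465), nanobody expression was induced with galactose for 36–48 hours. FACS gates were set low and high (top ~1%) using anti-HA fluorescence for expression and streptavidin fluorescence for binding of the Sf9 membrane reagent. Each polyreactivity label is drawn from the gate of origin.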

| Sequence | polyreactivity (PSR sort gate) |
| --- | --- |
| QVQLVDSRGGLVQAGGSLRLSCAASGRTFYRYAKGWDRPAPGKERDLVAVITSGSRTKYADSVKGRFTISRDTAKITVYLQMKSLKPEDTAVYSCAARGLALEGKSSGEYWGQGTQVTVSS | high polyreactivity |
| QVQLVESGGGLVQAGGRLRLSCAASGNIFYYYAMGWYRQAPGKERELVADIRSSGRTNYADSVKGRFTISRDNATNTVYLQMNSLKPADTAVYYCATDKWYSYADKYDYWGQGTQVTVSS | low polyreactivity |
| QDQLVESGGRIVQAGGSLRLSCASSGRTFYTYAMGWYRKAPGKERELVAAISSSGSTYYADSVKGRFTISRDNAKNTVYLQMNSLKPEDTALYDCNARTSRYRRGGDSWGQGTQVTVSS | high polyreactivity |
| QVQLVESGGGLVQSGGSLRLSCAASGYIFGVNAMGWYRQAPGKERELVAAIDSGSRTYYADSVKGRFTISRDNAKNTVYLQMNSLIPEDTAVYYCATNFYVSYGGGYYTIWYDYWGQGTQVTVSS | low polyreactivity |
| QVQLVESGGGLVQAGGSLRLSCAASGRIFRSNAMGWYRQAPGKERELVAVINSDDSTYYADSVKGRFTISRDNAKNTVYLQMNCLKPEDTAVYYCAAEPQYTRHMDSWGQGTQVTVSS | low polyreactivity |
| QVQLVESGGGLVQAGGSLRLSCAASGRTFIPYAMGCYRPAPGKERELVAAIRSGASTNYADSVKGRFTISRDNAKITVYLQMNSLNPEDTAVYYCNADFLGGTWFDYWGQGTQVTVSS | high polyreactivity |
| QVQLVESGGGLVQAGGSLRLSCAASGRIFTAYYAMGWYRQAPGKERELVASISSSGTSTYADSVKGRFTISRDNAKNTVYLQMNSLKPEDTAVYYCATRKLRTRRYDYGYWGQGTQVTVSS | low polyreactivity |
| QVQLVESGGGLVQAGGSLRLSCAASGGTFAAYAMGWYRQAPGKERELVAAIDSGGTTKYADSVKGRFTISRDNAKNTVYLQMNSLKPEDTAVYYCAKVTTGFGVETYHGKGNDYWGQGTQVTVSS | low polyreactivity |
| QVQLVESGGGLVQAGGSLRLSCAASGSIFYVYGMGWYRQAPGKERELVARITDSGGSTSYADSVKGRFTISRDNAKNTVYLQMNSLKPEDTAVYYCAAYVRPWYNYWGQGTQVTVSS | low polyreactivity |
| QVQLVESGGGLVQAGGSLSLSCAASGRTFVKNTMGWYRQAPGKERELVAAISSSGGSTYYADSVKGRFTISRDNAKNTVYLQMNSLKPEDTAVYYCAVSYPYKHAGGWYAYNYWGQGTLVTVSS | high polyreactivity |
| QVQLVESGGGLVQAGGSLRLSCAASGRTFHGYAMRWYRQAPGKDRELVAAITSSGARTYYADSVKGRFTISRDNAKNTVYLQMNSLKPEDTACYYCNAEYYSTWYRFDYWGQGTQVTVSS | high polyreactivity |
| QVQLVESGGGLVQPGGSLRLSCAASGFIFTLYAMGWYRQAPGKEREFFAAISWSDGSTTYADSVKGRFTISRDNAKNTVYLQMNSLKREDTAVYYCAAVTSSYIRGLVYHFYYWGQGTLVTVSS | low polyreactivity |
| QVQLVESGGGLVQAGGSLRLSCAASGFTFFFYAMGWYRQAPGKEREFVAATSWIGGGTYYADSVKGRFTISRDNAKNTVYLLMNSLKPEDTAVYYCATDLASYAVGSKYGYWGQGTQVTVSS | low polyreactivity |
| QVQLVESGGGLVQAGGSLRLSCAASGSTFRHYAMGWYRQAPGKERELVAAITRRTVSTYYADSVKGRFTISRDNAKNSVYLQMNSLKPEHTAVYYCAADYWYSGYDYWGQGTQVTVSS | low polyreactivity |
| QVQLVESGGGLVQAGGSLRLSCAASGFTFRNYAMGWYRQAPGKERELVAVIDWSGGRTYYADSVKGRFTISRDNAKNTVYLQMNSLKPEDTAVYYCNAVYGYRAYGGYGYWGQGTQVTVSS | high polyreactivity |
| QVQLVESGGGLVQAGGSLRLSCAASGSSFYDYAMVWYRQAPGKERELVAAINGNGDSTYYADSVKGRFTISRDNAKYTVYLQMNSLKPEDNAVYYCAAYLGWGYDYWGQGTQVTVSS | low polyreactivity |
| QDQLVESGGGLVQAGGSLRLSCAASGSTFVENAMGWYRQAPGKERELVAAISSSGDSTFYADSVKGRFTISRDNAKNTVYLQMNSLKPEDTAVYYCNTPLLKRTTRGRERNYWGQGTQVTVSS | low polyreactivity |
| QVQLVESGGGLVQAGGSLRLSCAASGRIFPYYTMGWYRQAPGKERELVAAITSGGITYYADSVKGRFTISRDNAKNTVYLQMKSLKPEDTAVYSCAALHSGKYTRYKYGYWGQGTQVTVSS | high polyreactivity |
| HVQLVESGGGLVQAGGILRLSCAASGRIFYRYEKGWYRQAPGKERELVAAITAGGNKYYADSVKGRFTISRDNAKNTVYLQMNSLKPEDTAVDYCGAGTTYSRYSVTRVDYWGQGTQVTVSS | high polyreactivity |
| QVQLVESGGGLVQAGGSLRLSCAASGFTFPYNAMGWYRQAPGKERELVAAISWSGGSTYYADSVKGRFTISRDNAKNTVYLQMNSLKPEDTAVYYCAASYWRIPMEYWGQVTQVTVSS | high polyreactivity |
| QVQLVESGGGLVQAGGSLRLSCDASGRTFVRYAMGWYRQAPGKERELVARITSRGTSTYYADSVKGRFTISRDNAKNTVYLQMNSLKPEDTAVYYCNKVRTFRDKSRYDYWGQGTQVTVSS | low polyreactivity |
| QVQLVESGGGLVQAGGSLRLSCAASGSTIVNNAMGWYIQAPGKERELVAAIRSSDGRTYYADSVKGRFTISRDNAKNTVYLQMNSLKPEDTAVYYCNRRYRKYSSAKYDYWGQGTQVTVSS | high polyreactivity |

| Sequence | polyreactivity (PSR sort gate) |
| --- | --- |
| QVQLVESGGGLVQAGGSLRLSCSSSGSIFVKNAMGWYRQAPGKERELVATISTGGRTYYADSVKGRFTISRDNAKNTVYLQMNSLIPEDTAVYYCATDFYPRYLLRTYRPYYYCGQGTQVTVSS | low polyreactivity |
| QVQLVESGGGLVQAGGSLRLSCAASGLIFYGNAMGWYRQAPGKERELVAAISWSGGNTSYADSVKGRFTISRDNAKNTVYLQMNSLKPEDTAVYYCAVDNTGRSWPYDYWGQGTQVTVSS | low polyreactivity |
| QVQLVESGGGLVQAGGSLRLSCAASGSIFDVNAMGRYRQAPGKERELVAAISQRGTRTYYADSVKGRFTISRDNAKNTVYLQLNSLKPEDTAVYYCNRGGWRQYDSWGQGTQVTVSS | high polyreactivity |
| QVQLVESGGGLVQAGGSLRLSCAASGSIFNVNAMGWYRQAPGKERELVAAISSGGDTYYADSVKGRFTISRDNAKNTVYLQMNSLKPEDTAVYYCAKQSYTLYTLLYDYWGQGTQVTVSS | low polyreactivity |
| QVQLVESGGGLVQAGGSLRLSCAASGFTFKWYAMGWYRQAPGKERELVATITIGGRTNYADSVKGRFTISRDNAKNTVYLQMNSLKPEDTAVYCCATFFVGFRLSDYDYWGQGTQVTVSS | low polyreactivity |
| QVQLVESGGGLVQAGGSLRLSCAASGFTFRSNAMGWYRQAPGKERELVATISSGGSTYYADSVKGRFTISRDNAKNTVYLQMNSLKPEDTAVYYCAADDLGWWFYSGGEDYDYWGQGTQVTVSS | low polyreactivity |
| QVHLVESGGGLVQAGGSLRLSCAASGSIFVQYAMGWYRQAPGKERELVAAITRDGDRTYYADSVKGRFTISRDNAKNTVYLQMNSLKPEDTAVYYCAARHSSIRSPQYDYWGQGTQVTVSS | high polyreactivity |
| QVQLVESGGGLVQAGGSLRLSCAASGITLYYYTMGWYRQAPGKERELVAAISGSGGSTYYADSVKGRFTISRDNAKNTVYLQMNSLKPEDTAVYYCNTARSLKNHFYKYDYWGQGTQVTVSS | high polyreactivity |
| QVQLVESGGGLVQAGGSLRLSCAASGNILLTNAMGWYRQAPGKEREFVAAIRWSGSRTYYADSVKGRFTISRDNAKNTVYLQMNSLKPEDTAVYYCAVRAVWPVSYGYWYYYWGQGTQVTVSS | high polyreactivity |
| QVQLVESGGGLVQAGGSLRLSCAASGFTFYTYDMGWYRQAPGKERALVAAITSGVSTNYADSVKGRFTISRDNAKNTVYLQMNSLKPEDTAVYYCNKDVRPAYRWYDYWGQDTQVTVSS | low polyreactivity |
| QVQLVESGGGLVQAGGSLRLSCAASGRTFVRNAKGWYRQAPGKERELVAAITSGGSTYYADSVKGRFTISRDNAKNTVYLQMNSLKPEDTAVYYCAAISTWGTKYDYWGQGTQVTVSS | high polyreactivity |
| QDQLVESGGGLVQAGGSLRLSCAASGRTFGPYAMGWYRQAPGKEREFVAAITWRGGRTNYADSVKGRFTISRDNAKNTVYLQMNSLKPEDTAVYYCNAVISPHQWIRGGDSWGQGTQVTVSS | low polyreactivity |
| QVQLVESGGGLVQAGGILRLSCAASGSTFVGYAMGWNRQAPGKERELVAAISRTGASTYYADSVKGRFTISRDNAKNTVFLQMNSLKPEDTEVYYCAYYYSIYDYWGQGTLVTVSS | high polyreactivity |
| QVQLVESGGGLVQAGGSLRLSCDASGRIFQYNAMGWSRQAPGKLRELVAAITVGGSTNYADSVTGRFTISRDNAKNTVYLQKNSLKPEDTAVSYCNKAWSSSWQVTYGICGQGTQVTVSS | high polyreactivity |
| QVQLVESGGGLVQAGGSLRLSCDASGSTFTRYVMGGYRQPPGKERELVAVISSSAGSTYYADSVKGRFTISRDNAKNTVYLQMNSLKPEDTAVYYCAARYSAKHYGYGYWGQGTQVTVSS | high polyreactivity |
| QVQLVESGGGLVQAGGSLRLSCAASGRIFTYYAMGWYRQAPGKERELVATITRRGGRTYYADSVKGRFTISRDNAKNTVYLQMNSLKPEDTAVYYCAVVPETRYYYWGQGTLVTVSS | high polyreactivity |
| QVQLVESVGGLVQAGGSLRLSCAASGSIFDWNAMGWYREAPGKERELVASIDWDGGRTYYADSVKGRFTISRDNAKNTVYLQMNSLKPEDTAVYYCAATYYYDWWRGRWSPHIMDYWGQGTQVTVSS | low polyreactivity |
| QVQLVESGGGLVQAGGSLRLSCAASGRTFFYYAMGWYRQAPGKERELVAAISGRGGSTYYADSVKGRFTISRDNAKNTVYLQMNSLKPVDTAVYFCAAQSPFRRYTSPWYDYWGQGTQVTVSS | high polyreactivity |
| QVQLVESGGGLVQAGGSLRLSCAASGRTFLHYAMGWYRQAPGKEREFVAAIRTSGTSTYYADSVKGRFTISRDNAKNTVYLQMNSLKPEDTAVYYCAVARGSGWYWRSDYWGQGTQVTVSS | high polyreactivity |
| QVQLVESGGGLVQAGGSLRLSCAAYGIIFRYYAMGWYRQAPGKERELVAAITASGGSTYYADSVKGRFTISRDHAKNTVYLQMNSLKPEDTAVYFGAAGSYFQHLIGYSTVSYGRNYWGQGTQVTVSS | high polyreactivity |
| QVQLVESGGGLVQAGGSLRLSCAASGSIIVGYAMGWYRQAPGKEREMVALISSDCDTYYADSVKGRFTISRDNAKNTVYLQMNSLKAEDTAVYYCNADLYGGGDKSVISGLNGEYEYWGQGTQVTVSS | low polyreactivity |
